From paper PMC6200926 (The Journal of Biological Chemistry, 2018) come the findings set out here.

Assay [1] concerns the target T1, A/Anhui/1/2005 HA globular head (Asp-55–Glu-271) (Influenza A virus A/Anhui/1/2005 (H5N1), UniProt Q1WDM0, strain). The assay can be described thus: cell-based or functional assay.
Assay [2] deals with T2, A/Beijing/01/2003 HA globular head (Asp-55–Glu-271) (Influenza A virus A/Beijing/01/2003 …, UniProt A5YTS6, strain). Put plainly: cell-based or functional assay.
Assay [3] deals with T1, A/Anhui/1/2005 HA globular head …. The assay can be described thus: SPR. Particulars: both partners purified.
The target in assay [4] is T2, A/Beijing/01/2003 HA globular head …. The assay can be described thus: SPR. The note with it: both partners purified.
Assay [5] has as its target T3, A/Thailand/1(KAN-1)/2004 HA globular head (Asp-55–Glu-271) (Influenza A virus …, strain). The assay can be described thus: cell-based or functional assay.
Assay [6] addresses T4, A/Vietnam/1203/2004 HA globular head (Asp-55–Glu-271) (Influenza A virus A/Vietnam/1203/2004 …, UniProt Q5EP31, strain). The assay can be described thus: cell-based or functional assay.
For assay [7], the target named is A/Turkey/65596/2006 HA globular head (Asp-55–Glu-271) (Influenza A virus A/Turkey/65596/2006 …, strain). The assay can be described thus: cell-based or functional assay.
Assay [8] concerns the target T3, A/Thailand/1(KAN-1)/2004 HA globular …. The assay can be described thus: SPR. The note with it: both partners purified.
The target in assay [9] is T4, A/Vietnam/1203/2004 HA globular head …. The assay can be described thus: SPR. The note with it: both partners purified.

B1: AVFluIgG03 (antibody, V domains shown)
VH: EVQLLESGGGLVQPGGSLRVSCTNSGFTFSNYAMSWVRQAPGKGLEWVSAISGNGGSGTYYADSVKGRFTISRDNSKNTMYLQMNSLRAEDTAVYYCVRDDSYDGGGHYGLHNWFDSWGQGTLVTVSS
VL: SVLTQPPSVSGAPGQRVTISCTGSSSNIGAGYDVHWYQQLPGTAPKLLIYGNSNRPSGVPDRFSGSKSGTSASLAITGLQAEDEADYYCQSYDSSVVVFGGGTKLEIK
As to B1, the “neutralisation IC50, pseudovirus with the whole HA of this strain” value stood at 2 ng/mL in [1] and 3 ng/mL in [2].

B2: AVFluIgG03 Fab (Fab, V domains shown)
VH: B1 VH
VL: B1 VL
notes: source: cut from the purified IgG with Lys-C
B2: the figures for the Kd in [3] and in [4] were 12.6 nM and 25 nM, respectively.

B3: FLD21.140 (antibody, V domains shown)
VH: QVQLQESGPGLVKPSQTLSLTCTVSGGSISSGTYYWSWIRHHPGKGLEWIGYIYHSGSAYYNPSLESRVTMSVDTSKNQFSLKLSSVTAADTAIYYCARAENLLSPYLAEGFDPWGQGTLVTVSS
VL: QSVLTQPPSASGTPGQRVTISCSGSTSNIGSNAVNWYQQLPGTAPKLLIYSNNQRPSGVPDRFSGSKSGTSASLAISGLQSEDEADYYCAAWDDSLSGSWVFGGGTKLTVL
Regarding B3, the figures for the “neutralisation IC50, pseudovirus with the whole HA of this strain” value in assay [5], in assay [6] and in assay [7] were 8 ng/mL, 1 ng/mL and 1 ng/mL, respectively.

B4: FLD21.140 Fab (Fab, V domains shown)
VH: B3 VH
VL: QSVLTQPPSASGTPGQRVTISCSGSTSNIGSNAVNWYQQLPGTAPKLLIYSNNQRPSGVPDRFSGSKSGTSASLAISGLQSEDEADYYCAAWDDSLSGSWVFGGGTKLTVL
For the molecule B4, the figures for the Kd in [8] and in [9] were 1 nM and 0.702 nM, respectively.
